We go through 1 substance from patent publication US20150307588A1.

As a reminder, the Kd is the concentration at which binding is half-saturated. By koff is commonly meant the rate constant with which the complex falls apart. Read a high koff as fast dissociation.

Test [1] concerns the target hBMP-9 (human) (UniProt Q9UK05). Put plainly: cell-based or functional assay.
Test [2] addresses hBMP-10 (human) (UniProt O95393). Put plainly: cell-based or functional assay.
Test [3] addresses hBMP-9 (human) (UniProt Q9UK05). Put plainly: SPR kinetics, captured CHO-cell-derived protein. For orientation: SPR reads the build-up and loss of mass on a sensor chip optically.
Test [4] has as its target hBMP-10 (human) (UniProt O95393). Put plainly: SPR kinetics, captured CHO-cell-derived protein.

UniProt Q9UK05, sequence (Q9UK05 320-429 limits assumed): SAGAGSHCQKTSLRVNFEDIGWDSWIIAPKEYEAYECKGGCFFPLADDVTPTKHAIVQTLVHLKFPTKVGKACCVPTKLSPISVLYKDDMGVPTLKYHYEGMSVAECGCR
UniProt O95393, sequence (O95393 317-424 limits assumed): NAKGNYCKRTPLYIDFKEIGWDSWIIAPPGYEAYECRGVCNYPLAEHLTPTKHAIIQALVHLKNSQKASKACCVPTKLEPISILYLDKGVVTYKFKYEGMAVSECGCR

Turning to “hENG(26-586)-hFc, CHO-cell-derived, with N-terminally truncated Fc domain (Fc fusion)”, the results for the IC50 (nM), BRE-luciferase reporter-gene assay in A204 cells with hBMP-9 (human) [1] and with hBMP-10 (human) [2] were 0.26 nM and 7.9 nM, respectively. The Kd with hBMP-9 (human) [3] worked out at 0.033 nM; with hBMP-10 (human) [4], 0.49 nM. The koff with hBMP-9 (human) [3] is 0.0025 s⁻¹; in the test with hBMP-10 (human) [4], 0.011 s⁻¹.
